This data set can be described thus: label from the status in PepcDB records.

Regarding “MTFPPPDPAVAPPAEPASRAPHGRPATSGQSASATTVGSGAPLPASSALASTPSQAGPTGRKRPGQSTVTARTGAPNLPDPLGDNVVGERAVVPPIQQGKSRTALTNELNAEPVAGTVPAAPGGDLFIDAVLAQSYRHFFGPTSQPAVPPRQQVISITRLMEKLAYLKPADQALVREAFQFSDEAHLGQYRQSGEPYITHPVAVAELCADWKLDVQSIMAALLHDVMEDQGITKSELAEKFGPKVSELVDGLTKLDKLEFQSREQAQAESFRKMLLAMARDVRVILVKLADRTHNMRTLDFVPPEKRRRIALETMEIYAPIAHRLGLNTIYRELQELSFKVGSPFRYATLEKAVKAARGNRREVVKRILEAAQSALAGAGIVAELSGREKTLYSIYRKMHDKQLSFSQVLDVYGFRVVVETQMHCYMAMGALHGLYKPMPGKFKDYIAIPKINGYQSLHTTLVGPFGTPVEFQIRTRGMHQIAEAGVAAHWMYKHQADHANDIQQQAHQWLQSLLDIQSQTGDSQEFLEHVKIDLFPDAVYVFTPKGHIRALPRGATALDFAYAVHSDLGNQCVAVKINNELLPLRTELKSGDIVEVVTAPYSKPNPSWLAFVRTGKARAAIRHYLKTTKLDEAIQLGERLLEQSTRQLGIELKAVPQSVWDRMIQWTGNKLKEDIFADLALGRRVPAVVARRMEILLQELSGDVDSALLAAVQTFAGEDAPAVPITGDEGMSMIFSACCRPIPGDSIVGYLGKGEGLQIHVQDCKVAKRLHSKDPEHWIEVMWAKKTTRAFDVSIKIMVRNVKGIVARVAADLTSADANVAHVAMEPQQGGHQEATYMQFVIQVQNRLHLANVMRALRRNPDVIRIFRDRNDG”, the protein production entry is recorded as “failed”.
In the case of “MTFPVIGVVGGGQLARMMAPPATALGFELRVLAEGEDVSAVAAVATAPIGDYKDLDALLEFSKGLDVMTFDHEHVPTQHLQALLDAGVNVQPGPDALVNAQDKLVMRAAIDRLGLPNPEWSAVNTVDELVAFGERIGWPVVLKTPRGGYDGKGVRMVDSADDALETADWFQAMSPLLAEAKVEFSRELSALVARSPSGESRAWPVVHTIQVDGVCDEVIAPAQNISVEVAAAAEEAALRIANELGVTGVMAAELFETPGVGVGFLINELAMRPHNTGHWTQDGSITSQFEQHLRAVLDLPLGATDALAPVVVMKNFLGGDNQDLFKAFPMALAFEPAAKVHSYGKSVRPGRKIGHVNLVGSSVSDVDSVRQRATAVANIIRDGRKPEQTTLEETA”, the protein production entry is listed as “failed”.
In the case of “MTFRDLLSVSFEGPRPDSSAGGSSAGGGGGSAGGAAPSEGPAVGGVPGGAGGGGGVVGAGSGEDNRSSAGEPGSAGAGGDVNGTAAVGGLVVSAQGVGVGVFLAAFILMAVAGNLLVILSVACNRHLQTVTNYFIVNLAVADLLLSATVLPFSATMEVLGFWAFGRAFCDVWAAVDVLCCTASILSLCTISVDRYVGVRHSLKYPAIMTERKAAAILALLWVVALVVSVGPLLGWKEPVPPDERFCGITEEAGYAVFSSVCSFYLPMAVIVVMYCRVYVVARSTTRSLEAGVKRERGKASEVVLRIHCRGAATGADGAHGMRSAKGHTFRSSLSVRLLKFSREKKAAKTLAIVVGVFVLCWFPFFFVLPLGSLFPQLKPSEGVFKVIFWLGYFNSCVNPLIYPCSSREFKRAFLRLLRCQCRRRRRRRPLWRVYGHHWRASTSGLRQDCAPSSGDAPPGAPLALTALPDPDPEPPGTPEMQAPVASRRKPPSAFREWRLLGPFRRPTTQLRAKVSSLSHKIRAGGAQRAEAACAQRSEVEAVSLGVPHEVAEGATCQAYELADYSNLRETDI”, the protein production entry is listed as “failed”.
In the case of “MTFSAFFQTIDDYSFRPMIPSFIRLLRFTGLFIAIFAPALYIAMISFHYEVIPLKLLLTIGESRAKIPFPPILEALLMELVLEMLREAAVRLPGPVGQTIGVVGGIVIGQAAVQAGIVSNVMVIVVSITAVASFIIPNLEMSAGIRLLRFPMMIIASLFGVIGIMVGMAIIIIHILSMESLGVPYGSPFSPLFASDLKDILIRLPWKIMKKRPLSLNLKQENRQSDIEGTEEDK” it was “failed”.
In the case of “MTGADHAHTRRRPLTGPLVKSLVFVVVTALATTVLGLSVAGTSVDSGTGTSTYKALFTDVTGLVDGDSVRISGVTVGEVTDVRVVDRRTAQVTFTVRDDRTLPRSTTAAVKYLNMVGQRYVSLGRGSGDLAGTLPEGGTVPLDRTTPALDLTLLFNGFKPLFEGLSPKDVNDLAGSIVQVLQGEGATVDSLIRHVGSLGTTVAAKDKVIGEVVENLTTVLDTLNDREDGFDDLVVTLQKLVTGFNQDRKPLGEAVAAMGDLTTVTAGLLEDGRAPLKKDVQELGRLSAGLGEHTPQIEDFLEKSPAKMTALARLSSYGSWFNLYLCEARVSGVSTSDGSKPPTGIAITESRCRGLEHHHHHH” it was “failed”; in that of “MTGAVETESMKTVRIREKIKKFLGDRPRNTAEILEHINSTMRHGTTSQQLGNVLSKDKDIVKVGYIKRSGILSGGYDICEWATRNWVAEHCPEWTEGQPIILNEEGDFTLGPLPE”, “not failed”.
As for “MTGEWKECKLREIASEIKSGGTPSTKHQEYYGGIIPWLNTKEIHFNRIRDTDIKITEGGLNNSSAKWVKENSIIVAMYGATAGKIAINKIPLTTNQACCNITPDSEKADYNFVYYNLCHRYDELVNLSCGAAQQNLNVGLITNLDIILPPITEQCAIASVLSSLDDKIDLLHRQNKTLEAMAETLFRQWFVEEADEDWEEGFLPDEFDFTMGQSPPGTSYNQEGVGKPMFQGNADFGFRFPEERVYTTEPTRLAYPHDTLISVRAPVGAQNMAKVECCIGRGVSAFRYKANNDFYTYTYFKLRSLMDEIKKFNDEGTVFGSISKTDFLQMGIAIPPEDIIEKFEIHAKPLNDKVIENCIQIKLLEVMRDTLLPKLMSGEVRVEG”, the protein production result is reported as “failed”.
In the case of “MTGFDADDAAALIQSYVDDHGLLSFLGVSVEDASDGEMRLRIPYHEKLTNHGPGEGDVHGGIAATLIDTAGGLAVRSALPKPVAANVATIDLNVSYLRPARGDLIADASVVRVGSTVGVAEISVVTPADTADAEPTEVAVGRGSFRVFRDDLEHHHHHH” it was “failed”.
In the case of “MTGHRPACPPIPADVYTRLERRIGRCHLNQRLGIEHDFEARIFGQGRTFFHIENWNRLHTLLRRLLKLSLLYRPGQRAARRIEIRRNEFTLPHLPEAFEGYTLLHISDLHLDMAGDLPDALIRAIGQAGHYDACVLTGDFRARTFGPYRGAIDGLAQVRTHIDKPVFAILGNHDTIRMTPEIEDLGIGVLLNEAREIRQDGASIFLAGVDDPHYYRADNIEKAADPIPQGAVSILLSHSPELYRHAAYADFDIMLCGHTHGGQICLPGGIALTLNARCPRAFGRGYWRYHRMQGYTSAGSGVSILDIRLNCPPEITLHRLSRHRLSKGGCECGGGKGLEHHHHHH” it was “not failed”; in that of “MTGKGQGGSWVPGVVSATDRGNFHASPTTATVLDIIGRILRAPLSATDTEIETALAQVADACSADVAQVCRAGTTGPLEPIHSWVRDGHIVLNIQDLCKFCPGSDQTGPVMLRDLKDLPEGPARDRLAGMELRSLVAVPMLRHGVLAGRVLLGWQTASSDLRPEDLAALQSLAEAMHAAAERRESERLTTEAAAALQEDRLLLESILRTSTSAILAFDADARIVFANDEAAALLGTDANRLPGCTLEGVGCRLLSREGEPLPPEALPVARAIAEGQTLRDLHHVLMAADGRQRILSINAAPVAAGAATAVRVVATIDDVTGQVSADSALRTALAEAHQLAFFDPLTGLYNRRGIVEVLRDCLQTCAREKAFLSLLYIDLDGMRQVNGTRGHWLGDRVLQALGARLDNLRQDGGDLGRISADEFVLTCGETHPDAAGAVAAAEAEAQRILESLREPFVVDGLTLEVTASIGLAAISAEDSVEGLLKGVDLAVMAAKAAGGDRACAYRADMEQDMVGRVALAQELREAIRRDEFRIYFEPMVSLGETGLEIVGQEALIRWEHPQRGLLAPIAFIPFAEETGFIRDIDRWVLRAAAQELARWAEDPARRHLGVSINISSAQFLSEEFGQMVREVLDETGVDPTRIELEVTEGTLLSNLGLARTTMMDLRSLGISIALDDFGTGFSSLSYLRDLPVDVLKIDRSFLGGLSDSKANRTILEGIIGLASGLGVALVAEGVETPAQFAWLRAKGCRTFQGYLFGRPVDEAQTQLAPEVSALGGHGGDRAVSGQIKG”, “failed”.

Source of the values: a protein production outcome set (Wang et al. 2014).
